Measured values: patent US20230365641A1 (XILIO DEVELOPMENT, published 2023)
Residue numbers refer to the chain shown, from its start. Names may count otherwise. Like-named read-outs stand apart in the source and are kept apart here. Each block holds one binder with its values, some of them ahead of it.

Columns and labels:
[1] = target: T1, PD-1 (antigen of the ELISA and of the in vitro affinity measurement) (UniProt Q15116 25-167, limits assumed); assay: kinetic binding table: TC4 captured as ligand (capture level 74.3 RU), hPD1-his as sample; method not given
T1 sequence (Q15116 25-167 limits assumed): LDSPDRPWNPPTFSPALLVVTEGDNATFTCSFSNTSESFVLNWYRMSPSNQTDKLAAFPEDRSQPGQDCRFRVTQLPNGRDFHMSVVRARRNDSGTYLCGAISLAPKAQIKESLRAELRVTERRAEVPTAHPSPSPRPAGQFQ

[2] = target: T2, PD-1 shown on cells (Raji-PD-1 cells); CD3/CD28 activated human CD8+ T cells; PD-1 effector cells of the … (human, UniProt Q15116 25-288); assay: flow cytometry on CD3+CD8+ T cells within CD3/CD28 activated human PBMCs, 1 h at 4 C, anti-human IgG PE, % anti-hIgG+; table CD8+ T cells under the graph
T2 construct: whole, on cells; Human is stated for the PBMCs; also called hPD-1; PD1 expressing Raji cells
T2 sequence (Q15116 25-288): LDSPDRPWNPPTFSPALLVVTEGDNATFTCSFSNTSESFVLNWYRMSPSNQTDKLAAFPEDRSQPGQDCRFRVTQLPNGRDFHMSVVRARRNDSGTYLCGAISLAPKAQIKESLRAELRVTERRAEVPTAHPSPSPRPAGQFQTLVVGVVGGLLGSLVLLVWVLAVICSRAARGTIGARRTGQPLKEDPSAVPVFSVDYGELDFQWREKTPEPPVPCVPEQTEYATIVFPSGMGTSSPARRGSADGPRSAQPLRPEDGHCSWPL
Protocol: Mixed donor lots of human peripheral blood mononuclear cells (PBMCs) were thawed and seeded in medium (RPMI1640, 10% fetal bovine serum (FBS), 2 mM 1-Glutamine, 50 U/mL penicillin, 50 μg/mL streptomycin, 1 μM each of non-essential amino acids, 10 mM HEPES, 1 mM sodium pyruvate, 55 μM B-mercaptoethanol, 10 μg/mL gentamycin) into tissue culture treated plates that were coated for 1 h at 37° C. with 1 μg/ml anti-CD3. Anti-CD28 was added in solution at a concentration of 5 μg/ml. Two days later the PBMCs were collected and transferred into a 96 well v-bottom plate at 100,000 cells per well in FACS Buffer (2% FBS in phosphate buffered saline (PBS)). Test articles were diluted to twice the indicated concentration in FACS buffer. Test articles were added to cells at a 1:1 ratio to the final concentration indicated in the figure and incubated for 1 h at 4° C. The cells were washed three times with FACS buffer and fixed in 4% PFA. Cells were then washed once in FACS buffer. All cells were stained in 100 μL of indicated molecules in FACS buffer for 1 h at 4° C. The cells were washed three times with FACS buffer and fixed in 4% paraformaldehyde (PFA). All cells were subsequently stained in 100 μL with anti-human IgG PE, anti-CD3 PE/Dazzle 594, anti-CD45 PerCP Cy5.5, anti-CD8 BV510, and anti-CD4 BV421 for 30 minutes. Cells were washed twice to remove unbound antibody and analyzed on the BD Celesta by gating on CD3+CD8+ T cells.

[3] = target: T2, PD-1 shown on cells (Raji-PD-1 cells; …); assay: cell-based or functional assay
[4] = target: T1, PD-1 (antigen of the ELISA and of the …); assay: ELISA on PD-1
[5] = target: T2, PD-1 shown on cells (Raji-PD-1 cells; …); assay: cell-based or functional assay; remark: listed apart in the source
[6] = target: T2, PD-1 shown on cells (Raji-PD-1 cells; …); assay: flow cytometry, on-cell binding to PD-1 expressing Raji cells, anti-human IgG-PE
[7] = target: T1, PD-1 (antigen of the ELISA and of the …); assay: ELISA
[8] = target: T1, PD-1 (antigen of the ELISA and of the …); assay: ELISA on PD-1; remark: listed apart in the source
[9] = target: T2, PD-1 shown on cells (Raji-PD-1 cells; …); assay: flow cytometry, on-cell binding to PD-1 expressing Raji cells, anti-human IgG-PE; remark: listed apart in the source
[10] = target: T1, PD-1 (antigen of the ELISA and of the …); assay: ELISA on PD-1; remark: listed apart in the source
[11] = target: T1, PD-1 (antigen of the ELISA and of the …); assay: ELISA on PD-1; remark: listed apart in the source
[12] = target: T2, PD-1 shown on cells (Raji-PD-1 cells; …); assay: flow cytometry, on-cell binding to PD-1 expressing Raji cells, anti-human IgG-PE; remark: listed apart in the source
[13] = target: T2, PD-1 shown on cells (Raji-PD-1 cells; …); assay: cell-based or functional assay; remark: listed apart in the source

Kd [1]: 6.58 nM | koff [1]: 0.00306 s⁻¹ | kon [1]: 465000 M⁻¹ s⁻¹
B1: TC4 (Fc fusion)
heavy 1: QVQLVQSGVEVKKPGASVKVSCKASGYTFTNYYMYWVRQAPGQGLEWMGGINPSNGGTNFNEKFKNRVTLTTDSSTTTAYMELKSLQFDDTAVYYCARRDYRFDMGFDYWGQGTTVTVSSASTKGPSVFPLAPSSKSTSGGTAALGCLVKDYFPEPVTVSWNSGALTSGVHTFPAVLQSSGLYSLSSVVTVPSSSLGTQTYICNVNHKPSNTKVDKKVEPKSCDKTHTCPPCPAPELLGGPSVFLFPPKPKDTLMISRTPEVTCVVVDVSHEDPEVKFNWYVDGVEVHNAKTKPREEQYASTYRVVSVLTVLHQDWLNGKEYKCKVSNKALPAPIEKTISKAKGQPREPQVYTLPPCRDELTKNQVSLWCLVKGFYPSDIAVEWESNGQPENNYKTTPPVLDSDGSFFLYSKLTVDKSRWQQGNVFSCSVMHEALHNRFTQKSLSLSPGGGSSPPGGGSSGGGSGPAPTSSSTKKTQLQLEHLLLDLQMILNGINNYKNPKLTAMLTAKFAMPKKATELKHLQCLEEALKPLEEVLNLAQSKNFHLRPRDLISNINVIVLELKGSETTFMCEYADETATIVEFLNRWITFAQSIISTLT
heavy 2: QVQLVQSGVEVKKPGASVKVSCKASGYTFTNYYMYWVRQAPGQGLEWMGGINPSNGGTNFNEKFKNRVTLTTDSSTTTAYMELKSLQFDDTAVYYCARRDYRFDMGFDYWGQGTTVTVSSASTKGPSVFPLAPSSKSTSGGTAALGCLVKDYFPEPVTVSWNSGALTSGVHTFPAVLQSSGLYSLSSVVTVPSSSLGTQTYICNVNHKPSNTKVDKKVEPKSCDKTHTCPPCPAPELLGGPSVFLFPPKPKDTLMISRTPEVTCVVVDVSHEDPEVKFNWYVDGVEVHNAKTKPREEQYASTYRVVSVLTVLHQDWLNGKEYKCKVSNKALPAPIEKTISKAKGQPREPQVCTLPPSRDELTKNQVSLSCAVKGFYPSDIAVEWESNGQPENNYKTTPPVLDSDGSFFLVSKLTVDKSRWQQGNVFSCSVMHEALHNHYTQKSLSLSPGGPPSGSSPVPLSLYSGSGGGAVNGTSQFTCFYNSRANISCVWSQDGALQDTSCQVHAWPDRRRWNQTCELLPVSQASWACNLILGAPDSQKLTTVDIVTLRVLCREGVRWRVMAIQDFKPFENLRLMAPISLQVVHVETHRSNISWEISQASHYFERHLEFEARTLSPGHTWEEAPLLTLKQKQEWISLETLTPDTQYEFQVRVKPLQGEFTTWSPWSQPLAFRTKPAALGKD
light: EIVLTQSPATLSLSPGERATLSCRASKGVSTSGYSYLHWYQQKPGQAPRLLIYLASYLESGVPARFSGSGSGTDFTLTISSLEPEDFAVYYCQHSRDLPLTFGGGTKVEIKRTVAAPSVFIFPPSDEQLKSGTASVVCLLNNFYPREAKVQWKVDNALQSGNSQESVTEQDSKDSTYSLSSTLTLSKADYEKHKVYACEVTHQGLSSPVTKSFNRGEC

EC50 [2]: 0.09 nM | EC50, PD-1/PD-L1 blockade RGA (NFAT fold induction) [3]: 1.34 nM | EC50 (read off the curve) [4]: ~0.2 nM | EC50, PD-1/PD-L1 blockade RGA (NFAT fold induction) [5]: 1.47 nM | EC50 (read off the curve) [6]: ~0.7 nM | Kd [7]: 0.33 nM | EC50 (read off the curve) [8]: ~0.2 nM | EC50 [9]: 0.8 nM | EC50 (read off the curve) [10]: ~0.2 nM | Kd [11]: 0.18 nM | EC50 (read off the curve) [12]: ~0.7 nM | EC50 (read off the curve) [13]: ~1 nM
B2: TC46 (Fc fusion)
heavy 1: B1 heavy 1
heavy 2: B1 heavy 2 with V458M, L460Y, S461D, S464H, G465P, S591A, N592C, S637C
light: B1 light
notes: Mask CD122 (C122A, N123C); also called PembroFab-IgG1 (N297A, MST, RF)-CD122*
